Test results as given in PMC7714896 (Signal Transduction and Targeted Therapy, 2020).

Molecular target: T1, receptor-binding domain (RBD) of SARS-CoV-2 spike protein (SARS-CoV-2, UniProt P0DTC2)
T1 construct: source: bought: GenScript
Experiment: SPR; BIAcore 3000; […], flow 15 μl/min, […]
Settings: both partners purified

B1: recombinant human CD147 extracellular fragment (His-CD147) (domain or fragment)
chain: EPGTVFTTVEDLGSKILLTCSLNDSATEVTGHRWLKGGVVLKEDALPGQKTEFKVDSDDQWGEYSCVFLPEPMGTANIQLHGPPRVKAVKSSEHINEGETAMLVCKSESVPPVTDWAWYKITDSEDKALMNGSESRFFVSSSQGRSELHIENLNMEADPGQYRCNGTSSKGSDQAIITLRVRSHLAAL
Kd: 185 nM
